No end group written: not given here.

The test has as its target T1, DGI-2 (UniProt Q15004 1-111, limits assumed).
T1 construct: Soluble recombinant DGI-2 made by in vitro translation (RTS, pIVEX2.3-MCS vector) and coated on plates for the ELISA; vector tag not described; also called KIAA0101; DGI-2 polypeptide
T1 sequence (looked up): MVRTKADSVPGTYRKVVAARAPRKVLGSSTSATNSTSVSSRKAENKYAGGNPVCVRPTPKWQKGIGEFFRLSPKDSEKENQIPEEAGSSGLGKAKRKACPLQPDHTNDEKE
Kind of test: phage ELISA, coated DGI-2. How it is done: For analysis of individual target binders, colonies were picked and phage prepared as described above using helper phage, M13KO7. Ninety-six-well microtiter plates were coated with 500 ng/well of specific target protein, 500 ng/well lactate dehydrogenase (LDH) irrelevant or non-specific target, 500 ng/well of positive control antibody raised against ETAG, and negative control of non-fat milk powder-PBS 2% at 4° C. overnight. Plates were then blocked with 350 microliters/well PBS containing 2% non-fat milk for 1 hr at room temperature. One hundred microliters per well of phage from isolated clones were added and plates were incubated at room temperature for 2 hr after centrifuging samples for 20 minutes at 3500 rpm at 4° C. The phage solution was then removed, and the wells were washed three times with PBS at room temperature. Antibody raised against M13 conjugated to horseradish peroxidase (Pharmacia) was diluted 1:3000 in PBS-Tween and added to each well (100 µl/well). Incubation was for 1 hr at room temperature, followed by washing with PBS-(0.5%) Tween 3 times as described. Color was developed by addition of ABTS solution (100 µl/well; Boehringer, Indianapolis, Ind.). Plates were analyzed at 405 nm. A clone was considered "positive" if the $A405$ of the well was $\geq$2-fold over background.
(In general: In an ELISA, binding on a coated surface is turned into a signal by an enzyme label.)

B1: DGI-2-20R-3-C10 (peptide)
peptide: SLSLYWDAQVGCEVFWGYCV
modifications: not fully specified; cysteine pairing not given here
notes: on M13 phage, pIII fusion with E-tag
Turning to B1, the binding result was “binds”.

B2: DGI-2-20R-4-F6 (peptide)
peptide: GNKCFPPHDLFWDPCDQLQS
modifications: not fully specified (bridges); cysteine pairing not given here
notes: as for B1
As to B2, the binding result is “binds”.

B3: DGI-2-20F-PP-D9 (peptide)
peptide: VRAVYSRDAYNEVGRWMRVGI
notes: as for B1
B3: the binding result was “binds”.

B4: DGI-2-20R-4-H7 (peptide)
peptide: LSHPMSPLRAASQMALTQGV
notes: as for B1
For the molecule B4, the binding result is “binds”.

B5: DGI-2-20R-4-F1212 (peptide)
peptide: MSSTAWTDRILQRGIGLGPV
notes: as for B1
B5: the binding result was “binds”.

B6: DGL-2-20R-3-D6 (peptide)
peptide: ACSVGTALVFPQRWWYLGRS
notes: as for B1
Take B6: the binding result was “binds”.

B7: DGI-2-20C-3-C1039 (peptide)
peptide: RPVVCLAGLTLAQFGWVFPGWRGWS
notes: as for B1
On to B7, for which the binding result was “binds”.

B8: DGI-2-20R-4-E82 (peptide)
peptide: DAGIGWVGSMWFPPGCIGAC
modifications: not fully specified (bridges); cysteine pairing not given here
notes: as for B1
On to B8, for which the binding result is “binds”.

B9: DGI-2-20R-3-B3 (peptide)
peptide: MFQDVACDLWHSVRCLRRDV
modifications: not fully specified (bridges); cysteine pairing not given here
notes: as for B1
B9: the binding result is “binds”.

B10: DGL-2-20R-3-B6 (peptide)
peptide: TSCQVMFLAGQHLLSRVPRL
notes: as for B1
On to B10, for which the binding result is “binds”.

B11: DGI-2-20R-3-B11 (peptide)
peptide: GWGCSVPGILCVGGHRQGGG
modifications: not fully specified; cysteine pairing not given here
notes: as for B1
B11: the binding result is reported as “binds”.

B12: DGI-2-20F-3-B102 (peptide)
peptide: GLRACDTYLGFCVGARRIDD
notes: as for B1
In the case of B12, the binding result is given as “binds”.

B13: DGI-2-40F-3-D7 (peptide)
peptide: ALRSLGSGGFGWQAGRASPQGMTHFPYFGWSGMPTARVRP
notes: as for B1
Regarding B13, the binding result is “binds”.

B14: DGI-2-20R-3-B7 (peptide)
peptide: SWRLWVSGELQGDRRKGLRG
notes: as for B1
Consider B14, for which the binding result was “binds”.

B15: DGI-2-20C-4-H316 (peptide)
peptide: RWSICRGLQYSIPGCAVEDLSDVMA
notes: as for B1
As for B15, the binding result is recorded as “binds”.

B16: DGI-2-20F-PP-C7 (peptide)
peptide: SSVWATWGSDLRTFGSVGFL
notes: as for B1
As for B16, the binding result is listed as “binds”.

B17: DGI-2-40F-3-C424 (peptide)
peptide: TVKFQGVVQERSRIAGFRYCGDHAVSWGLAGCPALRDKLQ
notes: as for B1
With B17, the binding result is “binds”.

B18: DGI-2-20F-PP-A4 (peptide)
peptide: RVSYEMLGRRRRSMHGSSMR
notes: as for B1
Regarding B18, the binding result was “binds”.

B19: DGI-2-20F-PP-C3 (peptide)
peptide: LGRTFVWGTCLHLSVSRFGH
notes: as for B1
Regarding B19, the binding result was “binds”.

B20: DGI-2-40F-3-C92 (peptide)
peptide: RFWSVSYQGGRVMCREWGYCLPI
modifications: not fully specified (bridges); cysteine pairing not given here
notes: as for B1
As to B20, the binding result is “binds”.

B21: DGI-2-20F-4-F9 (peptide)
peptide: LPQSRWLSEAWASWVDGVVD
notes: as for B1
B21: the binding result is reported as “binds”.

B22: DGI-2-20F-3-A7 (peptide)
peptide: LSLLSVVVRSMGASAPQRQV
notes: as for B1
Consider B22, for which the binding result is listed as “binds”.

B23: DGI-2-20F-PP-C4 (peptide)
peptide: SIILAGCVWVMPCGQNLGGV
modifications: not fully specified (bridges); cysteine pairing not given here
notes: as for B1
As to B23, the binding result is “binds”.

B24: DGI-2-20R-3-A7 (peptide)
peptide: VLQRSLWKDWVDGVMHGGGSRGV
notes: as for B1
Regarding B24, the binding result is recorded as “binds”.

B25: DGI-2-20F-PP-E6 (peptide)
peptide: EVFVSVWVFRFRVMPVTPGGT
notes: as for B1
As to B25, the binding result was “binds”.

B26: DGI-2-20R-3-B12 (peptide)
peptide: DGKHLTKWSGRGWWSAWVGG
notes: as for B1
For B26, the binding result is listed as “binds”.

B27: DGI-2-20R-4-E2 (peptide)
peptide: TANGHRYGGCGLWCKWMSGM
modifications: not fully specified; cysteine pairing not given here
notes: as for B1
On to B27, for which the binding result is “binds”.

B28: DGI-2-20R-3-C7 (peptide)
peptide: MGVVLECEGGWSIPGQTCYF
modifications: not fully specified; cysteine pairing not given here
notes: as for B1
B28: the binding result is given as “binds”.

B29: DGI-2-20F-3-C1 (peptide)
peptide: GSVLERGCLEFSGFCFSLGH
notes: as for B1
Consider B29, for which the binding result is given as “binds”.

B30: DGI-2-20R-3-C4 (peptide)
peptide: SRPGWCSRGTAWGFPGCSSS
modifications: not fully specified (bridges); cysteine pairing not given here
notes: as for B1
For the molecule B30, the binding result is on record as “binds”.

B31: DGI-2-20E-3-A1 (peptide)
peptide: CRNFGVIWGAGWVSPGCEDI
modifications: not fully specified
notes: as for B1
On to B31, for which the binding result is given as “binds”.

B32: DGI-2-20R-3-D7 (peptide)
peptide: VHSQGRMWAIPGLRGGTGAS
notes: as for B1
With B32, the binding result was “binds”.

B33: DGI-2-20F-PP-A3 (peptide)
peptide: SLFERSARSRYHGSPDCNGS
notes: as for B1
For B33, the binding result was “binds”.

B34: DGI-2-40F-3-D6 (peptide)
peptide: GLEPVPFQTDKRIAMGWTREWLVNGYGAAHRRDARMQSGH
notes: as for B1
Take B34: the binding result was “binds”.

B35: DGI-2-40F-3-A1 (peptide)
peptide: REFFNQASRGAWGYMFREWVEG
notes: as for B1
Regarding B35, the binding result is reported as “binds”.

B36: DGI-2-20R-3-C8 (peptide)
peptide: VVRQGCMAFSGLCSGVTESE
modifications: not fully specified; cysteine pairing not given here
notes: as for B1
Take B36: the binding result was “binds”.

B37: DGI-2-20R-4-G7 (peptide)
peptide: YTPASILTGFQRGYEGAGNG
notes: as for B1
As to B37, the binding result is listed as “binds”.

B38: DGI-2-40F-3-D11 (peptide)
peptide: LHFGSVMGWRPPGSLWSRPFGQVHPRSWSGS
notes: as for B1
Turning to B38, the binding result is given as “binds”.

B39: DGI-2-20R-4-H12 (peptide)
peptide: MSTLQGPGHLFQMLRRASLG
notes: as for B1
As to B39, the binding result is “binds”.

B40: DGI-2-20R-3-A6 (peptide)
peptide: GGGRESWGGGWFMGWGSGAG
notes: as for B1
Consider B40, for which the binding result is reported as “binds”.

B41: DGI-2-20F-4-E3 (peptide)
peptide: RNWLDKDCVWMGDCGARAGE
notes: as for B1
For B41, the binding result is reported as “binds”.

B42: DGI-2-20F-3-C12 (peptide)
peptide: LTPYSLARSWLSGRPSTGAT
notes: as for B1
Consider B42, for which the binding result was “binds”.

B43: DGI-2-40F-4-F6 (peptide)
peptide: SYRNFAMQSSLQVRRGSVVEDGTCWWEGVRCYSG
notes: as for B1
Turning to B43, the binding result is recorded as “binds”.

B44: DGI-2-20F-PP-C10 (peptide)
peptide: DRSRAPLCADKSGRWQRYRR
notes: as for B1
Regarding B44, the binding result is “binds”.

B45: DGI-2-20F-PP-G6 (peptide)
peptide: GSTRLRVTVRFCSETGTPGC
modifications: not fully specified; cysteine pairing not given here
notes: as for B1
B45: the binding result is on record as “binds”.

B46: DGI-2-40F-3-C8 (peptide)
peptide: YGTAGLFLRRACTMSDPGDPLGRRGYTGWGVLWDEWVTGS
notes: as for B1
As for B46, the binding result is recorded as “binds”.

B47: DGI-2-40F-3-D12 (peptide)
peptide: QGSAHVVRPPGVYDVPWKVGMFFHPQNWPNSWGRAYFRSG
notes: as for B1
For B47, the binding result was “binds”.

The values are drawn from US7056679 (ANTYRA, dated 2006).
